# Data as given in article PMC4538381, “Activation of Relaxin Family Receptor 1 from Different Mammalian Species by Relaxin Peptide and Small-Molecule Agonist ML290” (Frontiers in Endocrinology, 2015).
# Entries after “also recorded” stand apart in the source; their conditions may differ.
# B1: SQ10: rabbit RLN expressed from SQ10 cDNA in HEK293T cells, used as conditioned medium (protein)
# chain: RVTYEWMMENVKICRNDFVRTAIEVCGHVHLERESPSPENPFLSSGPAAETVPSSIKKDAENANTMLESIPNLPQELTATLFEKQPSKLYLQYLPTLKKSNVSFEEFKKIIQNIQRGVQGSSASESNTFSRKKRQFSESLPEECCKYGCPRYYLLMYC
# Assays:
# G-RXFP1 = experiment: Direct HTRF cAMP assay, guinea pig G-RXFP1; format: cell-based, guinea pig (Cavia porcellus); details: conditioned media from SQ10-transfected HEK293T cells, % of 10 μM Forskolin
# Procedure: The human, mouse, macaque, and pig RXFP1 cDNA constructs in baculovirus BacMam mammalian expression vector (Invitrogen, Carlsbad, CA, USA) were synthesized at the Eukaryotic Expression Group-Protein Expression laboratory (NCI, Frederick, MD, USA). The PCR primers for RT-PCR were designed to cover the full-length sequence of the open reading frame (ORF). PCR amplifications were performed with PfuUltra High-Fidelity DNA polymerase (Agilent Technologies, Santa Clara, CA, USA). Guinea pig RXFP1 (G-RXFP1) was amplified from guinea pig ovarian cDNA (Zyagen, San Diego, CA, USA). Rabbit RXFP1 (R1-RXFP1 and R2-RXFP1) cDNAs were amplified from rabbit uterus cDNA (Zyagen). All cloning was performed using the In-Fusion® HD Cloning Kit (Clontech Laboratories, Mountain View, CA, USA). Rabbit and guinea pig RXFP1s were cloned into pCR3.1 mammalian expression vector (Invitrogen). […]
# Direct measurement of cAMP production was performed using the HTRF cAMP HiRange kit (CisBio, Bedford, MA, USA). […] The plates were incubated for 60 min at room temperature, and the signal was read on a FLUOstar Omega (BMG Labtech, Cary, NC, USA) plate reader. cAMP levels were calculated according to the manufacturer’s instructions against a standard curve. […]
# R1-RXFP1 and R2-RXFP1 = experiment: Direct HTRF cAMP assay, rabbit R1-RXFP1 and R2-RXFP1; format: cell-based, European rabbit (Oryctolagus cuniculus); details: HTRF
# Procedure: The human, mouse, macaque, and pig RXFP1 cDNA constructs in baculovirus BacMam mammalian expression vector (Invitrogen, Carlsbad, CA, USA) were synthesized at the Eukaryotic Expression Group-Protein Expression laboratory (NCI, Frederick, MD, USA). The PCR primers for RT-PCR were designed to cover the full-length sequence of the open reading frame (ORF). PCR amplifications were performed with PfuUltra High-Fidelity DNA polymerase (Agilent Technologies, Santa Clara, CA, USA). Guinea pig RXFP1 (G-RXFP1) was amplified from guinea pig ovarian cDNA (Zyagen, San Diego, CA, USA). Rabbit RXFP1 (R1-RXFP1 and R2-RXFP1) cDNAs were amplified from rabbit uterus cDNA (Zyagen). All cloning was performed using the In-Fusion® HD Cloning Kit (Clontech Laboratories, Mountain View, CA, USA). Rabbit and guinea pig RXFP1s were cloned into pCR3.1 mammalian expression vector (Invitrogen). In order to study RXFP1 surface expression, rabbit cDNAs were cloned into pcDNA3.1™/Zeo+ mammalian expression vector (Invitrogen), which contained an N-terminal FLAG-tag and a bovine prolactin signal sequence (3). […] To make chimeric clones, the human, guinea pig, and rabbit plasmid were used as templates to produce PCR amplicons, which were then used for overlapping PCR and subsequent cloning with the In-Fusion kit. The chimeric guinea pig/human GH-RXFP1 construct contains guinea pig RXFP1 cDNA (G-RXFP1, 1–1499 bp) encoding the ectodomain, TM1, TM2, and part of TM3 (amino acids 1–499 of G-RXFP1), and human RXFP1 (hRXFP1, 1509–2274 bp) encoding TM3 to the C-terminal tail of the receptor (amino acids 503–757 of hRXFP1) (Figure 1A). The recombinant chimeric human–rabbit HR-RXFP1 was made with the 5′-part of the hRXFP1 sequence (1–972 bp, LDLa-LRR9, 1–324 aa), with the remainder being the rabbit RXFP1 sequence (973–2277 bp, LRR9-C-terminal tail, 325–759 aa) (Figure 1A). The recombinant chimeric rabbit–human R1H-RXFP1 or R2H-RXFP1 contains the N-terminal rabbit RXFP1 sequence (1–972 bp for R1-RXFP1 or 975 bp for R2-RXFP1), with the remaining sequence being hRXFP1 (973–2274) (Figure 1A). R1- and R2-RXFP1 denote two variants of rabbit RXFP1 cDNA. All numbers correspond to the full-length cDNAs with the first nucleotide of the ORF.
# (§1) HEK293T cell transient transfections were performed using Lipofectamine 2000 transfection reagent (Life Technologies, Grand Island, NY, USA) according to the manufacturer’s instructions. Cells transiently expressing the RXFP1 receptors were used within 48 h of transfection. Each construct was tested at least three times. For cell-conditioned media stimulation, HEK293T cells were transfected with the rabbit RLN construct (SQ10) or an empty pCR3.1 vector, and cells were cultured for 24 h. The media was used to stimulate HEK293T cells transfected with the RXFP1 receptors.
# (§2) Direct measurement of cAMP production was performed using the HTRF cAMP HiRange kit (CisBio, Bedford, MA, USA). HEK293T cells transiently transfected with different RXFP1 receptors were stimulated with various concentrations of RLN peptides or ML290 for 60 min at 37°C, 5% CO2, after which, two HTRF detection reagents (diluted according to assay kit directions in HTRF lysis buffer) were added. The plates were incubated for 60 min at room temperature, and the signal was read on a FLUOstar Omega (BMG Labtech, Cary, NC, USA) plate reader. cAMP levels were calculated according to the manufacturer’s instructions against a standard curve. Statistical processing of the data was performed using GraphPad Prism software.
# hRXFP1 = experiment: Direct HTRF cAMP assay, hRXFP1; format: cell-based, human; details: conditioned media from SQ10-transfected HEK293T cells, % of 10 μM Forskolin
# Procedure: as §1, §2
molecule,measurement,setting,value
B1,cAMP response to SQ10 conditioned medium,G-RXFP1,responded to SQ10 treatment with cAMP production; also recorded: activated human and guinea pig receptors and thus was fully functional
same,cAMP response to SQ10 conditioned medium,"R1-RXFP1 and R2-RXFP1; R1- or R2-RXFP1, conditioned media from SQ10-transfected HEK293T cells, % of 10 μM Forskolin",No response was recorded; also recorded: Neither of the two rabbit RXFP1 variants responded
same,statistical significance of response versus hRXFP1 or G-RXFP1,"R1-RXFP1 and R2-RXFP1; R1-RXFP1, SQ10 conditioned media",statistically significant (p < 0.0001) compared to hRXFP1 or G-RXFP1
same,cAMP response to SQ10 conditioned medium,hRXFP1,responded to SQ10 treatment with cAMP production; also recorded: activated human and guinea pig receptors and thus was fully functional
